This assay addresses T1, MBP–FlaA (C. jejuni flagellin FlaA, amino acids 177–482) (C. jejuni, biotinylated (EZ-Link NGS-PEG4-Biotin kit) in the BLI).
T1 chain: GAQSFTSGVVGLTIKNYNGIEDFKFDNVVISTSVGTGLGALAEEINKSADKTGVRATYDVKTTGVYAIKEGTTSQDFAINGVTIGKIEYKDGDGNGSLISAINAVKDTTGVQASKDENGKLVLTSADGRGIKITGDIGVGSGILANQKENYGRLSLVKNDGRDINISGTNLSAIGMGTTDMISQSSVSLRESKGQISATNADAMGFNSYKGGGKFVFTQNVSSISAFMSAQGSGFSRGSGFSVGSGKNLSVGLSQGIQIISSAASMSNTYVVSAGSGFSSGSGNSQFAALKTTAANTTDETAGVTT
Description: BLI.

B1: aa682 (VHH)
VHH: QVQLVESGGGLVQAGGSLRVSCTASVSTFSINALGWYRQAPGKARELVAAIGSDGTVYYTDSVKGRFTISRDNAKNTVSLQMSSLKPEDTAVYYCNAAGKRIGSDGSIWFAVASFGSWGQGTQVTVSS
B1: the dissociation rate constant (koff) (commonly a measure of how fast the partners let go of each other) stood at 0.024 s⁻¹.

The values are drawn from publication PMC9200632 (2022).
